Test results as given in the supplement of paper PMC9170038.

Tested on: MS2 coat protein
Assay: apparent KD of MS2 coat protein; designed switch direction (-1 OFF switch, 1 ON switch): -1; higher = weaker reporter binding
Summary of the method: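 Apparent KD, taken as the median over clusters for each design, was obtained by curve-fitting normalised cluster fluorescence. Designed RNA switches had been transcribed on Illumina chips by stalled E. coli RNA polymerase and titrated with SNAP-549-labelled MS2 coat protein, doubling from 0.7 or 1.5 nM to 3 µM.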

[1] = Eterna round: R95, input ligand: FMN 200 uM
[2] = Eterna round: R95, input ligand: microRNA oligo, concentration not stated
[3] = Eterna round: R95, input ligand: none
[4] = input ligand: microRNA oligo, concentration not stated

UCGAUGUGAGGAUAUAUUUUUUUUUUUCCUUAUGUUUUAUAACUUGAGGAUCACCCAAGUAGAAGGCGCUACGU [JR_Ex2_Sub063] (Eterna round: R97, puzzle: Exclusion 2)
apparent KD of MS2 coat protein (input ligand: FMN 200 uM): 70.6 nM | apparent KD of MS2 coat protein (input ligand: none): 136 nM

GAAAAUCGUAAGGAUAUCAGCGAAGAAGUACACUGAGAAGGUAUGACAUGAGGAUCACCCAUGUAGCCCGCUUA [Eternabot (L1) Solution 38] (Eterna round: R97, puzzle: Exclusion 6)
apparent KD of MS2 coat protein (input ligand: FMN 200 uM): 18 nM | apparent KD of MS2 coat protein (input ligand: none): 13.2 nM

ACUUGUGUUGAGGAUAUGCGCCGGCUCGCUGGCGCAGAAGGCGGCACAUGAGGAUCACCCAUGUCAGUUCGCGU [salish99_ex6_r004_002] (Eterna round: R97, puzzle: Exclusion 6)
apparent KD of MS2 coat protein (input ligand: FMN 200 uM): 300 nM | apparent KD of MS2 coat protein (input ligand: none): 26.4 nM

AUAACGAUAGUCAGGAUAUCGGUGGCAUCCGUCACCGAGAAGGGACAUGAGGAUCACCCAUGUUAAGCCUAUGA [Eternabot (L1) Solution 69] (Eterna round: R97, puzzle: Brourd's mod of Exclusion 4)
apparent KD of MS2 coat protein (input ligand: FMN 200 uM): 11.5 nM | apparent KD of MS2 coat protein (input ligand: none): 19.3 nM

GGUUGGCGAGGAUAUACAUGAGGAUCACCCAUGUGUGAGAAAAAAGUGAGGAAGAAAAGUAGAAGGCGCUGACG [salish99_ex3_r3_007] (puzzle: Exclusion 3)
apparent KD of MS2 coat protein [1]: 30.2 nM | apparent KD of MS2 coat protein [2]: 70.7 nM | apparent KD of MS2 coat protein [3]: 62.1 nM

UGCAAGCUUUUGAGAUCCUACAUGAGGAUCACCCAUGUGCUCGUCUUAUAACGUACUGUGACGAAAGUCACGGUACG [JL TOV1 3.97] (Eterna round: R97, puzzle: Sensor, turn-off variant 1)
apparent KD of MS2 coat protein (input ligand: FMN 200 uM): 184 nM | apparent KD of MS2 coat protein (input ligand: none): 222 nM

GCGGAUUAUGUAGGAUAUCGGUCAGUUUCUGAUCGAGAAGGACAUGAGGAUCACCCAUGUAAAUUCCUCGCUUUGUGAGGCCGC [JL ENG1 3.64] (Eterna round: R96, puzzle: Exclusion NG 1)
apparent KD of MS2 coat protein (input ligand: FMN 200 uM): 31.5 nM | apparent KD of MS2 coat protein [4]: 15.6 nM | apparent KD of MS2 coat protein (input ligand: none): 17.8 nM

AAAAGGCUAGGAUAUACCAGUGGGUGUAAGAACUCAAAUUUACAUGAGGAUCACCCAUGUAGAAGGAGUAAAAU [Dilaed] (puzzle: Exclusion 2)
apparent KD of MS2 coat protein [2]: 19.5 nM

GGAAAGCAAGGAUAUACAAGGAGAAGGAGGAAAGUAAAAGGACAUGAGGAUCACCCAUGUAGAAGGUGCGAGAG [JR_Exclu2_Sub039] (puzzle: Exclusion 2)
apparent KD of MS2 coat protein [1]: 31.9 nM | apparent KD of MS2 coat protein [2]: 29 nM | apparent KD of MS2 coat protein [3]: 43.5 nM

CGGAGCAGAGGGAGAUCCAACAUGAGGAUCACCCAUGUCUCACAAGCUUUUUGCUCGUCUUAUUGUACCUUGGUGCU [JL ViennaUCT Edcesobi mod 7] (puzzle: Sensor v3, turn-off variant 1)
apparent KD of MS2 coat protein [1]: 64.5 nM | apparent KD of MS2 coat protein [2]: 11.1 nM | apparent KD of MS2 coat protein [3]: 49.1 nM

GGAUUUACUGAGGAUAUUGCAUCACCCGACUGAUAAGAAGGCAGAACAUGAGGAUCACCCAUGUGGGUAGUCAA [Bingo-Bango-3] (Eterna round: R97, puzzle: Exclusion 6)
apparent KD of MS2 coat protein (input ligand: FMN 200 uM): 29.6 nM | apparent KD of MS2 coat protein (input ligand: none): 19.5 nM

CAUUCCUAGCGAGGAUAUCAGUAAAAGGGAAGCUGAGAAGGCGCAAACAUGAGGAUCACCCAUGUCACACGCGGGUAGUUUUCC [Uslazaxe] (Eterna round: R96, puzzle: Exclusion NG 1)
apparent KD of MS2 coat protein (input ligand: FMN 200 uM): 16.2 nM | apparent KD of MS2 coat protein [4]: 10.8 nM | apparent KD of MS2 coat protein (input ligand: none): 14.3 nM

UCGCUGCGAGGAUAUACAUGAGGAUCACCCAUGUACGGGUCCGGGUCUUCGUCCAUUGGUAGAAGGCGCAGUGA [JL Laongeedie mod 7] (puzzle: Exclusion 3)
apparent KD of MS2 coat protein [2]: 22.5 nM

GUAUCGUGAGGAUAUCAUGAUUGACUUAGUUUAUGUCAGCGUGAGAAGGCACAUGAGGAUCACCCAUGUGAUUA [Ex4 - 3 - 7] (puzzle: Exclusion 4)
apparent KD of MS2 coat protein [2]: 23.1 nM

GUCCCACAUGAGGAUCACCCAUGUGAGGAUAUGGUUUCGCUGGCCGUAGCCAGUGGAACCAGAAGGCGCAUGAU [Mat - Exclusion 1 - JL Mod - D2] (Eterna round: R97, puzzle: Exclusion 1)
apparent KD of MS2 coat protein (input ligand: FMN 200 uM): 25.2 nM | apparent KD of MS2 coat protein (input ligand: none): 20.3 nM

ACUCUGCGAGGAUAUACAUGAGGAUCACCCAUGUGCGAGUUACUUGUGAGGUCGGUUGGUAGAAGGCGCGGAGA [Mat - Exclusion 3 - Mod of JL D101] (puzzle: Exclusion 3)
apparent KD of MS2 coat protein [2]: 89.7 nM

AGUACUAACACGAAAGUGUUAGUACUAUAAGCUUGUGUUACAUGAGGAUCACCCAUGUCCUCAUAAGCUCGUCUUAA [Mat - Sensor v3 - Turn-off var 2 - D63] (puzzle: Sensor v3, turn-off variant 2)
apparent KD of MS2 coat protein [1]: 35.2 nM | apparent KD of MS2 coat protein [2]: 437 nM | apparent KD of MS2 coat protein [3]: 41 nM

UCGACCGGAGGAUAUUACGUAAAGUACAUGAGGAUCACCCAUGUGUGGUACCUCGAGUCGUAAGAAGGCCGAAAUA [Teisor] (puzzle: Exclusion 5)
apparent KD of MS2 coat protein [1]: 283 nM | apparent KD of MS2 coat protein [2]: 605 nM | apparent KD of MS2 coat protein [3]: 505 nM

CUUUACAAGCUAAGAUCCUACAUGAGGAUCACCCAUGUGGUCCGGUGACGUGAGUCACCGGACUUAGCUCGUCUUGA [salish99_S_TOV1_R5_093] (Eterna round: R97, puzzle: Sensor, turn-off variant 1)
apparent KD of MS2 coat protein (input ligand: FMN 200 uM): 32 nM | apparent KD of MS2 coat protein (input ligand: none): 39.1 nM

CCUUCCCGAGGAUAUACAUGAGGAUCACCCAUGUGAUCCUAAGGCUGAUCAAGCCUAUGUAGAAGGCGCAAAUC [salish99_ex3_r4_006] (Eterna round: R97, puzzle: Exclusion 3)
apparent KD of MS2 coat protein (input ligand: FMN 200 uM): 35.1 nM | apparent KD of MS2 coat protein (input ligand: none): 38.4 nM

CCAGCGUAUGUGAGGAUAUGCUGGUCCUUGGAUCAGCAGAAGGCACAUGAGGAUCACCCAUGUGGAAACGUUGG [Mod of JL 1 - Jieux - Brourd's mod of Exclusion 4] (Eterna round: R97, puzzle: Brourd's mod of Exclusion 4)
apparent KD of MS2 coat protein (input ligand: FMN 200 uM): 95.4 nM | apparent KD of MS2 coat protein (input ligand: none): 24.3 nM

UUUGUAUAUGAAGGAUAUACUUAACAUGAGGAUCACCCAUGUGGUGUUGUGAGUGAGUGAGUUUAGUAGAAGGUCAAUGAUUUU [JMF's solution 71] (Eterna round: R96, puzzle: Exclusion NG 2)
apparent KD of MS2 coat protein (input ligand: FMN 200 uM): 531 nM | apparent KD of MS2 coat protein [4]: 218 nM | apparent KD of MS2 coat protein (input ligand: none): 317 nM

AGAGUGCUGCGAGGAUAUACAUGAGGAUCACCCAUGUUUUCGUGUGAGGCUUUGCCUCACACGAAGUAGAAGGCGCAGUACUCU [Mat - Exclusion NG 2 - Mod of JL - D31] (Eterna round: R96, puzzle: Exclusion NG 2)
apparent KD of MS2 coat protein (input ligand: FMN 200 uM): 7.9 nM | apparent KD of MS2 coat protein [4]: 8.79 nM | apparent KD of MS2 coat protein (input ligand: none): 12.2 nM

CAUGUGUUAGGAUAUGCACAGAUCUCCGAAAGGAGAUCUGUGCAGAAGGAACAUGAGGAUCACCCAUGUUGAUG [Mod of Brourd 16 - Jieux - Exclusion 4] (Eterna round: R97, puzzle: Exclusion 4)
apparent KD of MS2 coat protein (input ligand: FMN 200 uM): 136 nM | apparent KD of MS2 coat protein (input ligand: none): 37.3 nM

GCCAGAGCAGGAUAUUCAUUAUAUCACAUGAGGAUCACCCAUGUCCAGCGAAAGCUGGAGGGAGAAGGGCUCUGGC [Fiskers Ex 5 - 24] (puzzle: Exclusion 5)
apparent KD of MS2 coat protein [1]: 102 nM | apparent KD of MS2 coat protein [2]: 225 nM | apparent KD of MS2 coat protein [3]: 140 nM

GAUUAUGCGAGCUUUAGGGACAUGAGGAUCACCCAUGUUCGUCUUAUUAGUCUAAAUACGCUGACAUACCUAAAUCU [JMF 94] (puzzle: Sensor v3, turn-off variant 1)
apparent KD of MS2 coat protein [1]: 14 nM | apparent KD of MS2 coat protein [2]: 18 nM | apparent KD of MS2 coat protein [3]: 18.2 nM

GGGCUGCGACACAGCCCAACAAAACAUGAGGAUCACCCAUGUCAGGAUAUACCGAUGCAGCAUCUGUAGAAGGGACAGAUCCAA [Usorxe] (Eterna round: R96, puzzle: Exclusion NG 3)
apparent KD of MS2 coat protein (input ligand: FMN 200 uM): 120 nM | apparent KD of MS2 coat protein [4]: 88.1 nM | apparent KD of MS2 coat protein (input ligand: none): 66.3 nM

CUCCUCAUGGCGCCUAAACACAUGAGGAUCACCCAUGUACAGGCUCUUUGCCGUCUUAUAAUAAAACCGAGGAUGCG [Ageusan] (puzzle: Sensor v3, turn-off variant 1)
apparent KD of MS2 coat protein [1]: 40.2 nM | apparent KD of MS2 coat protein [2]: 219 nM | apparent KD of MS2 coat protein [3]: 36.4 nM

GCUUGGCGAGGAUAUACAUGAGGAUCACCCAUGUGAGAAGAAUAAGUGAGGAAGAAAAGUAGAAGGCGCUGAGG [Mat - Exclusion 3 - Mod of Salish D62] (puzzle: Exclusion 3)
apparent KD of MS2 coat protein [1]: 56.1 nM | apparent KD of MS2 coat protein [2]: 30.4 nM | apparent KD of MS2 coat protein [3]: 37.6 nM

GAUCAUGCAGGAUAUACAUGUUCCAUGAAAACAUGGUCCUCACAUGAGGAUCACCCAUGUAGAAGGGCAUGAUC [Omei Ex2 A31] (Eterna round: R97, puzzle: Exclusion 2)
apparent KD of MS2 coat protein (input ligand: FMN 200 uM): 132 nM | apparent KD of MS2 coat protein (input ligand: none): 1450 nM

UUACGGCGGAUCGUGGCUUUUUGCUCGUCUUGUGCUACAACAUGAGGAUCACCCAUGUAGAGGUGAUCCGUUGUAUU [Grok-var2-19 mod JAL] (Eterna round: R96, puzzle: Sensor v3, turn-off variant 2)
apparent KD of MS2 coat protein (input ligand: FMN 200 uM): 342 nM | apparent KD of MS2 coat protein [4]: 13.4 nM | apparent KD of MS2 coat protein (input ligand: none): 740 nM

GCCUACCAGCUAGGAUAUGCAGUACAGUAAAAUGUAGAAGGAGCACGAUCCAGACAUGAGGAUCACCCAUGUGGGCGGCAGGCA [Raartive] (Eterna round: R96, puzzle: Exclusion NG 1)
apparent KD of MS2 coat protein (input ligand: FMN 200 uM): 19.7 nM | apparent KD of MS2 coat protein [4]: 17 nM | apparent KD of MS2 coat protein (input ligand: none): 22.8 nM

ACAAGCUUAAAGGUGAAUAACAUGAGGAUCACCCAUGUUCGUCUUAUAAAAAUAAAAAUAAAAAAUAAAAAAUAAAA [Sensor V2: 62] (Eterna round: R96, puzzle: Sensor v2, turn-off variant)
apparent KD of MS2 coat protein (input ligand: FMN 200 uM): 25.6 nM | apparent KD of MS2 coat protein [4]: 87.2 nM | apparent KD of MS2 coat protein (input ligand: none): 27.9 nM
